First the molecules themselves.
B1: pZmZEP1 HSE probe (dsDNA)
DNA 1: GGGTGTTTTTCTGGAATCATGCA
DNA 2: TGCATGATTCCAGAAAAACACCC
B2: pZmAAO4 HSE probe (dsDNA)
DNA 1: TCTTAATCTCCTAGAAAAATACGGT
DNA 2: ACCGTATTTTTCTAGGAGATTAAGA
B3: pZmAOS1 HSE probe (dsDNA)
DNA 1: GTCAAGTCGGGTCTAGAAACTCATAGGCA
DNA 2: TGCCTATGAGTTTCTAGACCCGACTTGAC
B4: pZmCAT1 HSE probe (dsDNA)
DNA 1: GAAGATGAGCTTCTAGGACTGTTAGA
DNA 2: TCTAACAGTCCTAGAAGCTCATCTTC
B5: pZmRD21 HSE probe (dsDNA)
DNA 1: TATCGGTTTTTTTAGAAGATATTATGGC
DNA 2: GCCATAATATCTTCTAAAAAAACCGATA

Sequence of ZmHsf28 (K7V9Y4 entry or part of it): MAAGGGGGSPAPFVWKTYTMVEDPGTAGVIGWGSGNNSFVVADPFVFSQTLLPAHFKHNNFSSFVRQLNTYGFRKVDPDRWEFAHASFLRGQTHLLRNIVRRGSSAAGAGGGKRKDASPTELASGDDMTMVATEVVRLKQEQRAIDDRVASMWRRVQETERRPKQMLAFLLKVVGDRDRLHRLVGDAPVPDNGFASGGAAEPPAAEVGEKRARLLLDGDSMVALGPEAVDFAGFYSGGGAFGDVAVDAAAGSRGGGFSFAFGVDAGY

This data set has as its target ZmHsf28 (Zea mays, UniProt K7V9Y4 1-267). As to the kind of experiment: EMSA; Chemiluminescence EMSA kit (Beyotime); buffer, salt, pH and temperature not stated; unlabeled probes as competitors. The conditions noted are these: protein: recombinant; tags: His (pET28a, Ni-NTA); chain copies: 3; blunt.
On to B1, for which the binding result is “binds”. As for B2, the binding result is reported as “binds”. For the molecule B3, the binding result is reported as “binds”. Consider B4, for which the binding result was “binds”.

As for B5, the binding result is recorded as “binds”.

For the origin of these results see paper PMC10179534, “Maize Transcription Factor ZmHsf28 Positively Regulates Plant Drought Tolerance”.
